Substitutions are numbered along the chain they refer to. In names and notes the source's numbering stands.
T1: Full-length Human OX40 (human, UniProt P43489 29-277)
T1 sequence: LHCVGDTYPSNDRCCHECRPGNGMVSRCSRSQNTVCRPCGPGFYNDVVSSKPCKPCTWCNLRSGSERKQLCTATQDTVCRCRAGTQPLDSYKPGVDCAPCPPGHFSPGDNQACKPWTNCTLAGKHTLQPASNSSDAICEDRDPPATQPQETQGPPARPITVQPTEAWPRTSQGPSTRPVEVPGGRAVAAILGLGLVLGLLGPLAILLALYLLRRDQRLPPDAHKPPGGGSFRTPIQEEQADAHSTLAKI

T2: Human OX40 ECD-AFH (human)
T2 construct: ECD'; entry includes the C-terminal tags; also called OXF003; Human OX40 ECD-avi-flag-his
T2 chain: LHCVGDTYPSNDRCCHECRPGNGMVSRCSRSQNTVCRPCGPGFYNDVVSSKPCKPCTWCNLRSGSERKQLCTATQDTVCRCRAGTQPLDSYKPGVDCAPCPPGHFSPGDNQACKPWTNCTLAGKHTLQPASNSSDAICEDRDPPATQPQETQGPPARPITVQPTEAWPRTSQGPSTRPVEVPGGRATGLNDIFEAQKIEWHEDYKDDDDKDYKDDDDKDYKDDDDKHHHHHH

T3: Full-length Cyno 4-1BB (cynomolgus monkey, UniProt Q07011 24-255 (human entry))
T3 construct: on Jurkat or CHO cells; also called FOB006; cynomolgus 4-1BB
T3 chain: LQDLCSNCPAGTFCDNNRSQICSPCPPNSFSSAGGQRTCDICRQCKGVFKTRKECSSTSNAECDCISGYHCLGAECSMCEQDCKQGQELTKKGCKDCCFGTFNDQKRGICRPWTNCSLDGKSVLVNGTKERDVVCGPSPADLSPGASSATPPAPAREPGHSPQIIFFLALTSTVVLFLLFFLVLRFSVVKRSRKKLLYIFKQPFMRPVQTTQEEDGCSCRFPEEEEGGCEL

T4: Full-length Cyno OX40 (cynomolgus monkey, UniProt P43489 29-277 (human entry))
T4 construct: on CHO-K1SV cells; also called OXF004; cynomolgus OX40
T4 chain: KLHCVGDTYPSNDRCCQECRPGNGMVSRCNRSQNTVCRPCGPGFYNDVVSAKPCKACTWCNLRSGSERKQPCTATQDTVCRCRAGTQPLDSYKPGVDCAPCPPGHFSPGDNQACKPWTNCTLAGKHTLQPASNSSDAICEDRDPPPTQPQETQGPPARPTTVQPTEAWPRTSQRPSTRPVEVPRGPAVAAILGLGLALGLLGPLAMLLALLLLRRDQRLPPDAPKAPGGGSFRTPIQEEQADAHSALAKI

B1: FXX01104 (bispecific antibody)
chain: EIVMTQSPATLSLSPGERATLSCRASQSVSSYLNWYQQKPGQAPRLLIYYASRRHTGIPARFSGSGSGTDFTLTISSLQPEDFAVYYCQQGYNLPYTFGQGTKVEIKGGGGSGGGGSGGGGSGGGGSEVQLVQSGAEVKKPGASVKVSCKASGYTFTSYWMNWVRQAPGQGLEWMGNIYPSGGSTNYAQKFQGRVTMTVDTSTSTVYMELSSLRSEDTAVYYCASFSDGYYAYAMDYWGQGTLVTVEPKSSDKTHTCPPCPAPPAAAPSVFLFPPKPKDTLMISRTPEVTCVVVDVSHEDPEVKFNWYVDGVEVHNAKTKPREEQYNSTYRVVSVLTVLHQDWLNGKEYKCAVSNKALPAPIEKTISKAKGQPREPQVYTLPPSRDELTKNQVSLTCLVKGFYPSDIAVEWESNGQPENNYKTTPPVLDSDGSFFLYSKLTVDKSRWQQGNVFSCSVMHEALHNHYTQKSLSLSPGGGGSPSSYVLTQPPSVSVAPGQTARITCGGNNIGSKSVNWFQQKPGQAPVLVVYDDSGRPSGIPERFSGSTSGNTATLTISRVEAGDEADYYCQVWDSSSDHVVFGGGTKLTVLGGGGSGGGGSGGGGSGGGGSQVQLVESGGGVVQPGRSLRLSCAASGFTLSYYGMHWVRQAPGKGLEWVAAISHDGSDKYYADSVKGRFTISRDNSKNTLYLQMNSLRAEDTAVYYCSNDQFDPWGQGTLVTVSSR
notes: ADAPTIR anti-4-1BB (LH) x anti-OX40; also called FX01104
B2: FXX01107 (bispecific antibody)
chain: B1 chain with T688R
notes: ADAPTIR anti-4-1BB (LH) x anti-OX40 with T86R; also called FX01107
B3: FXX01105 (bispecific antibody)
chain: B1 chain with Q498K
notes: ADAPTIR anti-4-1BB (LH) x anti-OX40 with Q17K; also called FX01105
B4: FXX01108 (bispecific antibody)
chain: B1 chain with Q498K, T688R
notes: ADAPTIR anti-4-1BB (LH) x anti-OX40 with Q17K and T86R
B5: K322A Fc (other)
chain: EPKSSDKTHTCPPCPAPEAAGAPSVFLFPPKPKDTLMISRTPEVTCVVVDVSHEDPEVKFNWYVDGVEVHNAKTKPREEQYNSTYRVVSVLTVLHQDWLNGKEYKCAVSNKALPAPIEKTISKAKGQPREPQVYTLPPSRDELTKNQVSLTCLVKGFYPSDIAVEWESNGQPENNYKTTPPVLDSDGSFFLYSKLTVDKSRWQQGNVFSCSVMHEALHNHYTQKSLSLSPG
notes: IgG1 Fc with L234A, L235A, G237A, K322A (EU); the listing labels the entry 'K332A'
B6: Null2 Fc (other, human, UniProt P01857-1 99-329, looked up, name in EU numbering)
chain: B5 chain with S5C, E103A, K105A
notes: domain: Fc region

Each binder was assayed against T1, Full-length Human OX40 (assay: cell-based or functional assay).

Binder | OX40 Reporter Assay EC50 [nM] | OX40 Reporter Assay Max induction
B1 | 0.013 | 1.99e+06
B2 | 0.013 | 2.14e+06
B3 | 0.01 | 1.97e+06
B4 | 0.013 | 2.07e+06

These binders were tested against T5, Full-length Human 4-1BB (human, UniProt Q07011 24-255) (assay: cell-based or functional assay).

Binder | 4-1BB Reporter Assay EC50 [nM] | 4-1BB Reporter Assay Max induction
B1 | 0.011 | 6.11e+06
B2 | 0.016 | 6.85e+06
B3 | 0.014 | 6.58e+06
B4 | 0.013 | 6.61e+06

These binders were tested against T1, Full-length Human OX40 (assay: flow cytometry, CHO cells expressing human OX40).
Experimental: (§1) FIGS. 12A-12D show the binding of anti-4-1BB x anti-OX40 constructs, with additional humanization in 4-1BB and altered orientations of binding domains, human (12A) or cynomolgus (12C) 4-1BB-expressing Jurkat cells or human (12B) or cynomolgus (12D) OX40-expressing CHOK1SV cells. Serial dilutions of ADAPTIR™ constructs were incubated with transfected cells and subsequently labelled with a fluorescently-conjugated goat-a-human Fc secondary antibody. […] (See Example 19.)
(§2) Binding studies were performed using the flow cytometry-based staining procedures described above.

Binder | EC50 [nM] | max MFI [MFI]
B1 | 0.32 | 10400
B2 | 0.29 | 10300
B3 | 0.35 | 10500
B4 | 0.32 | 10300

Target: T2, Human OX40 ECD-AFH
Assay: SPR, construct captured, monomeric ECD as analyte
Experimental: (§3) Mouse anti-human IgG (GE, BR-1008-39) at 25 μg/ml in 10 mM sodium acetate pH 5.0 was immobilized at a density of ˜10,000 response units (RU) onto each flow cell of a CM5 research-grade sensor chip (GE) by standard amine coupling chemistry. Each binding protein at approximately 100 nM in HBS-EP+ with 0.2% BSA buffer was captured in a flow cell with the immobilized anti-human IgG at a flow rate of 10 μL/min for 20 seconds, leaving one flow cell surface unmodified as the reference. Using a single-cycle kinetics mode, five different concentrations of ECD were sequentially injected through each flow cell at 30 μL/min for 300 seconds followed by a 600 second dissociation period. Regeneration was achieved by injection of 3 M MgCl₂ at a flow rate of 30 μL/min for 30 seconds followed by HBS-EP+ with 0.2% BSA buffer stabilization for 1 min.
(§4) Sensorgrams obtained from kinetic SPR measurements were analyzed by the double subtraction method. The signal from the reference flow cell was subtracted from the analyte binding response obtained from flow cells with immobilized or captured ligands. Buffer reference responses were then averaged from multiple injections. The averaged buffer reference responses were then subtracted from analyte binding responses, and the final double-referenced data were analyzed with Biacore T200 Evaluation software (2.0, GE), globally fitting data to derive kinetic parameters. All sensorgrams were fitted using a simple one-to-one binding model.
(§5) Protein was produced by transient expression, purified by ProA chromatography and prep SEC.

Binder | Kd [nM] | koff [s⁻¹] | kon [M⁻¹ s⁻¹]
B1 | 0.5 | 0.00032 | 710000
B2 | 0.5 | 0.00029 | 630000
B3 | 0.4 | 0.00027 | 710000
B4 | 0.8 | 0.00039 | 480000

What follows are binders tested against T6, Human 4-1BB ECD-AFH (human) (assay: SPR, construct captured, monomeric ECD as analyte).
T6 construct: entry includes the tags; also called FOB003; HUMAN CD137 ECD-AVI-FLAG-HIS
T6 sequence (chain, as listed by the source limits assumed): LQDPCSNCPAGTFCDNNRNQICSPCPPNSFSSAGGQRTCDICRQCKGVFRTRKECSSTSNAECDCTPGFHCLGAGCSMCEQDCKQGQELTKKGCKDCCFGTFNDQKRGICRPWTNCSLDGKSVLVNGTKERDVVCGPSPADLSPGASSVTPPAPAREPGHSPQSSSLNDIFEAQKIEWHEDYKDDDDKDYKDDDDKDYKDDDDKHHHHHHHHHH
Experimental: as §3, §4, §5

Binder | Kd [nM] | koff [s⁻¹] | kon [M⁻¹ s⁻¹]
B1 | 17 | 0.0055 | 320000
B2 | 18 | 0.0056 | 310000
B3 | 19 | 0.0055 | 290000
B4 | 18 | 0.0055 | 310000

The binders below were run against T5, Full-length Human 4-1BB (assay: flow cytometry, Jurkat cells expressing human 4-1BB).
Experimental: as §1, §2

Binder | EC50 [nM] | max MFI [MFI]
B1 | 0.31 | 4860
B2 | 0.26 | 4700
B3 | 0.33 | 4940
B4 | 0.29 | 4770

The binders below were run against T7, Recombinant FcRn/b2M protein (human, UniProt P55899 24-297; P61769 21-119, limits assumed) (assay: SPR pH 6.0, FcRn/b2M immobilized, two-state reaction model).
T7 construct: also called hFcRn/b2M; neonatal Fc receptor
T7 sequence (P55899 24-297 limits assumed, chain 1 of 2): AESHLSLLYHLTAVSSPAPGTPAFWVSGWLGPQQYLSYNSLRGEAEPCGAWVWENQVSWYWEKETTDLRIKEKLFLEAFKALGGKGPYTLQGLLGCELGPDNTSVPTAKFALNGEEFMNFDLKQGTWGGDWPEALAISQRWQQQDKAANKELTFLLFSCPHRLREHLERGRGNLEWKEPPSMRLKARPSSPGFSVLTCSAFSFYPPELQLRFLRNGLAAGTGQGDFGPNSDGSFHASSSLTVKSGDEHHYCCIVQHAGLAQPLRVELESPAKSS
T7 sequence (P61769 21-119 limits assumed, chain 2 of 2): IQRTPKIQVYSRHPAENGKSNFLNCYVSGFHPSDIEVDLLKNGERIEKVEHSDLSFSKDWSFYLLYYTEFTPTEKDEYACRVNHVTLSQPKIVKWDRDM
Experimental: Recombinant FcRn/b2M protein was generated via transient transfection of HEK-293 cells with a bi-cistronic vector containing the genes for both FcRn and […]. The complex was purified using IMAC chromatography and subsequently buffer exchanged into IMAC elution buffer after verifying purity of the IMAC eluate by analytical SEC. hFcRn/b2M at 10 μg/ml in 10 mM sodium acetate (pH 4.5) was immobilized on a CM5 chip by direct amine coupling chemistry to a level of ˜600 RU. A reference flow cell was left blank.
Different concentrations of the Fc variant protein (5-80 nM by 2-fold dilutions in pH 6.0 running buffer) including running buffer as blank were injected in randomized order at 30 μL/min for 180 seconds followed by a 120 second dissociation period.
Sensorgrams obtained from kinetic SPR measurements were analyzed by the double subtraction method. The signal from the reference flow cell was subtracted from the analyte binding response obtained from flow cell with immobilized ligands. Buffer reference was subtracted from analyte binding responses, and the final double-referenced data were analyzed with Biacore T200 Evaluation software (2.0, GE), globally fitting data to derive kinetic parameters. All sensorgrams were fitted using two-state reaction model, as described in Weirong Wang et al, DrugMetab Dispos.: 39(9): 1469-77 (2011).

Binder | Kd [nM]
B5 | 22
B6 | 33

Target: T3, Full-length Cyno 4-1BB
Assay: flow cytometry on Jurkat cells transfected with cynomolgus 4-1BB, goat anti-human Fc secondary antibody, MFI (Mean)
Experimental: as §1, §2

Binder | EC50 (read off the curve) [nM]
B1 | ~0.3
B2 | ~0.3
B3 | ~0.3
B4 | ~0.3

Target: T4, Full-length Cyno OX40
Assay: flow cytometry on CHOK1SV cells transfected with cynomolgus OX40, goat anti-human Fc secondary antibody, MFI (Mean)
Experimental: as §1, §2

Binder | EC50 (read off the curve) [nM]
B1 | ~0.8
B2 | ~0.8
B3 | ~0.8
B4 | ~0.8

Reference: patent publication US20220242962A1 (APTEVO RESEARCH AND DEVELOPMENT, published 2022)
